Results from patent US20100047893.

Experiments:
[1] = target: RBP16
[2] = target: histone H3, P68432
[3] = target: mixed bovine histones (Sigma)
[4] = target: GST

B1: GST-TbPRMT7 (protein)
chain: MPPKQHRHQKKDKNDNALQNTIGFVPPGATLASVSGYRPPDAFVNRIDRNIPVPARLRHTPVSLIEAVNDFHYAMMNDEERNNFYYEVLKKHVTPETGVLEIGAGSGLLSLMAAKLGAKWVVAVEGSEELAKLARENIRANNMEHQVKVLHMMSTELKSKHLPEPPDVLLSEIFGTMMLGESALDYVVDVRNRLLKPTTKIIPQFGTQYAVPIECDALHRISSVSGWRDLDLKHMMTLQDTVSIVFAKHYGIRMNSVNFRRLSDPIELFRVDFSSSNRNDIPRRKHFDVVAKESGTAHAMLFYWKVTDDEFVMSTDPEDTVNNFPRDMQWGQALQLLDASNGPLPTPVVFTEGKNYNFECNFSGDRVILHMQLCPESGNGEMTECEGKTT
In the case of B1, the “methylarginine derivatives by cation exchange chromatography after 3H-AdoMet reaction” value [1] is reported as “only monomethylargnine produced with either histone (B) or RBP16 (C) substrate”, the “protein arginine methyltransferase activity (3H-AdoMet, SDS-PAGE, fluorography)” value [2] is reported as “the recombinant enzyme possesses protein arginine methyltransferase activity and utilizes histone H3 as a substrate” and the “methylarginine derivatives by cation exchange chromatography after 3H-AdoMet reaction” value [3] is reported as “only monomethylargnine produced with either histone (B) or RBP16 (C) substrate”.

B2: recombinant TbPRMT7 (protein)
chain: B1 chain
With B2 the “in vitro methylation (3H-AdoMet, SDS-PAGE, fluorography)” value [4] was “Of the eight substrates tested, only GST was not methylated”, the in vitro methylation [1] was “Results indicate methylation occurred” and the in vitro methylation [3] was “Results indicate methylation occurred”.

B3: TbPRMT7-ProtC (protein)
chain: B1 chain
With B3 the “in vitro methylation (3H-AdoMet, fluorography)” value [1] was “TbPRMT7-ProtC strongly methylated both histones and RBP16” and the “in vitro methylation (3H-AdoMet, fluorography)” value [3] was “TbPRMT7-ProtC strongly methylated both histones and RBP16”.
